# Measured values reported in publication PMC10433997, “Highly Cross-Reactive and Protective Influenza A Virus H3N2 Hemagglutinin- and Neuraminidase-Specific Human Monoclonal Antibodies” (Microbiology Spectrum, 2023).
# Positions count from the first letter of the chain named.
# B1: 1092E4 H3-specific human monoclonal antibody (antibody, V domains shown)
# VH: QVQLVQSGAEVKKPGASVKVSCKASGYSFTRYGISWVRQAPGQGLEWMGWISAYTGNTDYAQKFQGRITMTTDTSTSTVYMELRSLRSDDTAVYYCARDHPQGVVILGSYYYGMDVWGQGNTVTVSS
# VL: EIVLTQSPGTLSLSPGERATLSCRASQSVTSRYLAWYQQKLGQAPRLLIYGASSRATGIPDRFSGSGSGTDFTLTISSLEPEDFAVYYCQQSGSPRTFGQGTKVEIK
# notes: also called H3 hMAb 1092E4; source: HEK293T, transfected; IgG captured and eluted from Magne protein A beads
# B2: 1092C4 H3-specific human monoclonal antibody (antibody, V domains shown)
# VH: B1 VH with Q1E, V79A, H100L
# VL: B1 VL with F84L
# notes: also called H3 hMAb 1092C4; source: HEK293T, transfected; IgG captured and eluted from Magne protein A beads
# Assays:
# [1] = molecular target: recombinant hemagglutinin (HA) of A/Netherlands/219/03 H7N7 (Influenza A virus …, UniProt Q6VMK1, strain); assay: ELISA; conditions: both partners purified
# [2] = molecular target: T1, hemagglutinin (HA) of A/Switzerland/9715283/2013 H3N2 (Influenza A virus …, strain); assay: cell-based or functional assay
# [3] = molecular target: T2, H3 hemagglutinin protein of A/Brisbane/10/2007 H3N2 (Influenza A virus A/Brisbane/10/2007 …, UniProt A8W8K8, strain); assay: cell-based or functional assay
# [4] = molecular target: T1, hemagglutinin (HA) of …; assay: cell-based or functional assay; remark: listed apart in the source
# [5] = molecular target: T2, H3 hemagglutinin protein of …; assay: cell-based or functional assay; remark: listed apart in the source
# [6] = molecular target: T3, hemagglutinin (HA) of A/Hong Kong/1/1968 H3N2 (Influenza A virus A/Hong Kong/1/1968 …, UniProt Q91MA7); assay: immunostaining of cells or tissue; conditions: one partner purified
# T3 construct: source: MDCK cells infected with the virus (BEI Resources)
Binder,binding result [1],"hemagglutination inhibition (HAI) IC50, virus A/Switzerland/9715293/2013 H3N2 [2] [µg/mL]","hemagglutination inhibition (HAI) IC50, virus A/Brisbane/10/2007 H3N2 [3] [µg/mL]","microneutralization IC50, virus A/Switzerland/9715293/2013 H3N2 [4] [µg/mL]","microneutralization IC50, virus A/Brisbane/10/2007 H3N2 [5] [µg/mL]",binding result [6]
B1,binds,50,3.13,6.25,0.1,binds
B2,binds,50,< 0.05,0.78,0.1,binds
